Tests used:
c-Src SH2 = experiment: SH2 binding enrichment of the phosphorylated peptide, bacterial display (enrichment ratio); higher = better substrate or ligand; peptides without Tyr show the background
SHP2-C SH2 = experiment: as above
Grb2 SH2 = Grb2 SH2 (UniProt P62993); experiment: as above
Jak2 = Jak2 (UniProt O60674); experiment: phosphorylation enrichment, bacterial display (enrichment ratio); higher = better substrate or ligand; peptides without Tyr show the background
Fes = Fes (UniProt P07332); experiment: as above
EPHB2 = EPHB2 (UniProt P29323); experiment: as above
FGFR1 = FGFR1 (UniProt P11362); experiment: as above
Chain of FGFR1 (P11362 whole entry, looked up): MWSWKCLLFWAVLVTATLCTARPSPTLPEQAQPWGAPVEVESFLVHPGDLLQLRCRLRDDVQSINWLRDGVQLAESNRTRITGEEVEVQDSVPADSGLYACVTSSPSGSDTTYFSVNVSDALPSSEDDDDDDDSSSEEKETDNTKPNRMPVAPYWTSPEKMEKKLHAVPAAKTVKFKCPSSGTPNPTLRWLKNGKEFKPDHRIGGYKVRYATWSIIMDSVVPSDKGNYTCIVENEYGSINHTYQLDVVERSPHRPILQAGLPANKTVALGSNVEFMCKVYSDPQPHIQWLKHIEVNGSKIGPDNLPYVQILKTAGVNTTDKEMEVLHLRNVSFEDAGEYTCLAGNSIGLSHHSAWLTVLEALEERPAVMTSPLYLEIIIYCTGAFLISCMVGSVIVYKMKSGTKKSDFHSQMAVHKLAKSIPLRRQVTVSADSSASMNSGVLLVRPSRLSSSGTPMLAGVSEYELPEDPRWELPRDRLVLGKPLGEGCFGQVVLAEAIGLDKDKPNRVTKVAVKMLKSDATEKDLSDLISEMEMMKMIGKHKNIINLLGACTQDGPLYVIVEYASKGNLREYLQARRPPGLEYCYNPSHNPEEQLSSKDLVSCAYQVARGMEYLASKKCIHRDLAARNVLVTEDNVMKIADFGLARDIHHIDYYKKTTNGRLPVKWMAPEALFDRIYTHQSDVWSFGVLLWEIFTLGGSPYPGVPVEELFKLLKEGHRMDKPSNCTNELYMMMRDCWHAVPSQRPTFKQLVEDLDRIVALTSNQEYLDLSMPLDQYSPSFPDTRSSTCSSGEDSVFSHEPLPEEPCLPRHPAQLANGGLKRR

AncSZ = experiment: as above
MERTK = MERTK (UniProt Q12866); experiment: as above
Hck = Hck (UniProt P08631); experiment: as above
Chain of Hck (P08631 whole entry, looked up): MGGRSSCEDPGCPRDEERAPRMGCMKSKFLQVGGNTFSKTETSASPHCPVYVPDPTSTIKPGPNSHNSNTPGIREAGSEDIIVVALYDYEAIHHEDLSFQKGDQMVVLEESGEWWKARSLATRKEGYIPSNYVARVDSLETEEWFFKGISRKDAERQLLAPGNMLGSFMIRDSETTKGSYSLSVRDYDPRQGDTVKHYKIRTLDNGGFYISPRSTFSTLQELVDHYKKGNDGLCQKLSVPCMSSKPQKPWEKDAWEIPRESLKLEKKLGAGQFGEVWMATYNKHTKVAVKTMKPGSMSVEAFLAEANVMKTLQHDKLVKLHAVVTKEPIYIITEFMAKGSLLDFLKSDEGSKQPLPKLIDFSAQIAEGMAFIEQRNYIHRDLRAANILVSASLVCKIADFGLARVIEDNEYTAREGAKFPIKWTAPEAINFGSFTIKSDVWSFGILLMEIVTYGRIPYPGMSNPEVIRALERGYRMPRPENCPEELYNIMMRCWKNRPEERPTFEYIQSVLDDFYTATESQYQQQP

EPHB1 = EPHB1 (UniProt P54762); experiment: as above
Chain of EPHB1 (P54762 whole entry, looked up): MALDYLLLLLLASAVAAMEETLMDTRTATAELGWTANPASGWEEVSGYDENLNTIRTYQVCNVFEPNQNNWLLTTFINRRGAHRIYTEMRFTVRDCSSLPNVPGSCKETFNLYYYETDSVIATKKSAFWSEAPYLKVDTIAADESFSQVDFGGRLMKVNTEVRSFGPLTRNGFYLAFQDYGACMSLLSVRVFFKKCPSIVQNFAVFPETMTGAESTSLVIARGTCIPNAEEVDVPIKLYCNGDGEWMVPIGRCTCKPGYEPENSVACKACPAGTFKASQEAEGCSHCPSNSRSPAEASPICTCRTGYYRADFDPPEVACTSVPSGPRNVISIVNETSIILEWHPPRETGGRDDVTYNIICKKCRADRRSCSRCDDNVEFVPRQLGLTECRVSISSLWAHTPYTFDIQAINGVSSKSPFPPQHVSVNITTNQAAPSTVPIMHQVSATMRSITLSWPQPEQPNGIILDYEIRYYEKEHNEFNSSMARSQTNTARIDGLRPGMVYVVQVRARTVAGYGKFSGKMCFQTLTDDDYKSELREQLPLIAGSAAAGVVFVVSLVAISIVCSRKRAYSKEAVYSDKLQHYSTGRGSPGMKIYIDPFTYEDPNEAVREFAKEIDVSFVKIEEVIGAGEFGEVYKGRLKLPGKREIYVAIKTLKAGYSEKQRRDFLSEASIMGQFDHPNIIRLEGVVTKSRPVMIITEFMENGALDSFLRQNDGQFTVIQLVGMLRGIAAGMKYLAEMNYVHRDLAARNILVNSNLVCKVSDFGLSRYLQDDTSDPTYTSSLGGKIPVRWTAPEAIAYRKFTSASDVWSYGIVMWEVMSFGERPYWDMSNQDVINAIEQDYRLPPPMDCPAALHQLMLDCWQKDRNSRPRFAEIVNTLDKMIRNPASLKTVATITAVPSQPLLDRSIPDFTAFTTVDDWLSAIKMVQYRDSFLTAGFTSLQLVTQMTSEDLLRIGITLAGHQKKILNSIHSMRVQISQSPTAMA

FGFR3 = FGFR3 (UniProt P22607); experiment: as above
Chain of FGFR3 (P22607 whole entry, looked up): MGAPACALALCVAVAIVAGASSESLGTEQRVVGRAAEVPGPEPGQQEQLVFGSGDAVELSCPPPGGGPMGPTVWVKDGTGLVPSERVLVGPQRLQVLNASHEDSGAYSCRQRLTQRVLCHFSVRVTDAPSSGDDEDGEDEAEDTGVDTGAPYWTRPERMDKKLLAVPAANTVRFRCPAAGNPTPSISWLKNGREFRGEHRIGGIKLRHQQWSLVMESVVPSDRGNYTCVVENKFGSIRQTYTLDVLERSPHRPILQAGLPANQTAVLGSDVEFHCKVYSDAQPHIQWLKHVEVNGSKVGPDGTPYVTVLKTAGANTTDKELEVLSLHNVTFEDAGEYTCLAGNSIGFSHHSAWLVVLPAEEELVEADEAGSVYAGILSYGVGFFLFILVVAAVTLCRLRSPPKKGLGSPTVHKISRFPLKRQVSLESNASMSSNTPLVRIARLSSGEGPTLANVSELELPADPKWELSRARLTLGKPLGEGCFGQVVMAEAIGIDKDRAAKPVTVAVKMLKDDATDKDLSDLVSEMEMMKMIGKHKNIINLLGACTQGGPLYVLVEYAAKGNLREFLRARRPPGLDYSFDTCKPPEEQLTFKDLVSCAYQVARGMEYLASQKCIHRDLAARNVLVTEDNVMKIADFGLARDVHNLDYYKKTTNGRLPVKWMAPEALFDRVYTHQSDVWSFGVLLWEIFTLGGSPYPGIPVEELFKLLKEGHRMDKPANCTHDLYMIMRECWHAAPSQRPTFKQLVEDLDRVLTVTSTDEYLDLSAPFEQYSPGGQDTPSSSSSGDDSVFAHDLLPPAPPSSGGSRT

c-Abl (mouse) = experiment: as above
Fyn = Fyn (UniProt P06241); experiment: as above
Chain of Fyn (P06241 whole entry, looked up): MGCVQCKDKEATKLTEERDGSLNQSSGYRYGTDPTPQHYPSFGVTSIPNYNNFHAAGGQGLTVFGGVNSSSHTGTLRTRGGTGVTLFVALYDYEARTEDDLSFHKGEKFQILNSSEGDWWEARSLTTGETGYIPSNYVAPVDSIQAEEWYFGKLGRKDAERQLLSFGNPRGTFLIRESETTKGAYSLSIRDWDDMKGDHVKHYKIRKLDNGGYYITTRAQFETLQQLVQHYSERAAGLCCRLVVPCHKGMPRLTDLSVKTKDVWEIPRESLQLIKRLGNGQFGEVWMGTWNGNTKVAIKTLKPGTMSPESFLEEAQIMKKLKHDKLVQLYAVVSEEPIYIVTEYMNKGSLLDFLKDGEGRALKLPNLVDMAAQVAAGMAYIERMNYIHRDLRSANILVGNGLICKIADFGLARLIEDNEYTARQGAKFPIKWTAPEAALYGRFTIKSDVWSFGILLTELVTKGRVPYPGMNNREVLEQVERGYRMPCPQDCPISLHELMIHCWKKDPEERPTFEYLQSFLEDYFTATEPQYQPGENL

c-Src = experiment: as above
Fer (mouse) = experiment: as above
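For SH2 binding enrichment of the phosphorylated peptide, bacterial display in this document: peptide library displayed on the E. coli surface as eCPX fusions, selected cells deep-sequenced, score is each peptide's frequency after selection divided by its frequency in the input.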
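For phosphorylation enrichment, bacterial display in this document: 11-residue human phosphosite peptides and single-mutation variants displayed on the E. coli surface, counted by deep sequencing, each peptide's frequency after selection divided by its frequency in the unselected input library; frequency after pTyr selection over input frequency; kinase dosed for 20-30% of maximal phosphorylation in three min.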

Chain of Grb2 SH2 (P62993 whole entry, looked up): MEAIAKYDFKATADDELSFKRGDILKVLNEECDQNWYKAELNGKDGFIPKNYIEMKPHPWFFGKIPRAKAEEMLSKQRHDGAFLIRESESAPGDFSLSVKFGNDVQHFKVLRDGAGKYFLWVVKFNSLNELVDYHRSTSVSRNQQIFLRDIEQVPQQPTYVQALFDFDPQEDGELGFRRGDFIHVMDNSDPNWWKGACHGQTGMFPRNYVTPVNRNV
Chain of Jak2 (O60674 whole entry, looked up): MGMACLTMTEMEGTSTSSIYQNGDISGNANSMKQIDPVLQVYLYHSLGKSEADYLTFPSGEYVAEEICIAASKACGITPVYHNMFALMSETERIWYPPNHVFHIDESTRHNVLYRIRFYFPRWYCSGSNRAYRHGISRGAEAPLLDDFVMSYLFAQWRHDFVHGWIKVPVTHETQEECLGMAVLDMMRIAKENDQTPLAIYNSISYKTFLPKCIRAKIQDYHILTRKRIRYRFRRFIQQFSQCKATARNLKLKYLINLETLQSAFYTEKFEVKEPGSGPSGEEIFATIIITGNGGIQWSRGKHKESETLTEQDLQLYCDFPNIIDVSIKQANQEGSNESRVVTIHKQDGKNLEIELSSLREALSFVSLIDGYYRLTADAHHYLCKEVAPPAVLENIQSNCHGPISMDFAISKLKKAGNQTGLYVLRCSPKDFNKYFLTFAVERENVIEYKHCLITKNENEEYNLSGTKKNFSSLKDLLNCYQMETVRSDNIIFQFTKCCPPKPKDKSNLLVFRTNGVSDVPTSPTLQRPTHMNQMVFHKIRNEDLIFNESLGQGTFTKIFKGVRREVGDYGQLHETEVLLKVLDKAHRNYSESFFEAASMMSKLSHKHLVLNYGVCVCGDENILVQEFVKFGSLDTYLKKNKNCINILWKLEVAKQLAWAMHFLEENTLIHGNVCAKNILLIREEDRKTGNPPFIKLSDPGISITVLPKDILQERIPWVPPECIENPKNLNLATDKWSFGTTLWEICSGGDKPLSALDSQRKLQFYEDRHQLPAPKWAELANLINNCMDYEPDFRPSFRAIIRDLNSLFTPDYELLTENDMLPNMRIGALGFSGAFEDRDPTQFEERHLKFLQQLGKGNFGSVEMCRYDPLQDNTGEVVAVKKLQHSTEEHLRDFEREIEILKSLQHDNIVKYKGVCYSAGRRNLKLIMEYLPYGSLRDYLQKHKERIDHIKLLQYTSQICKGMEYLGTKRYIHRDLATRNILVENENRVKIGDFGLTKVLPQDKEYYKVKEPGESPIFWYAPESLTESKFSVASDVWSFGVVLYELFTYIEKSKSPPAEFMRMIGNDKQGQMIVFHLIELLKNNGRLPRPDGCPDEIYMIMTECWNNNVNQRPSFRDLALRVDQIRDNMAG

| Sequence | SH2 binding enrichment (c-Src SH2) | SH2 binding enrichment (SHP2-C SH2) | SH2 binding enrichment (Grb2 SH2) | phosphorylation enrichment (Jak2) | phosphorylation enrichment (Fes) | phosphorylation enrichment (EPHB2) | phosphorylation enrichment (FGFR1) | phosphorylation enrichment (AncSZ) | phosphorylation enrichment (MERTK) | phosphorylation enrichment (Hck) | phosphorylation enrichment (EPHB1) | phosphorylation enrichment (FGFR3) | phosphorylation enrichment (c-Abl (mouse)) | phosphorylation enrichment (Fyn) | phosphorylation enrichment (c-Src) | phosphorylation enrichment (Fer (mouse)) |
| --- | --- | --- | --- | --- | --- | --- | --- | --- | --- | --- | --- | --- | --- | --- | --- | --- |
| KTSGNYLPVTG [WDR19_Y28_A30P] | 0.493 | 0.913 | 0.758 | 0.524 | 0.543 | 0.435 | 0.369 | 0.519 | 0.598 | 0.405 | 0.474 | 0.37 | 0.446 | 0.41 | 0.402 | 0.359 |
| LRNIDYFRLDG [ATRX_Y2083_YF] | 0.595 | 22.6 | 0.761 | 26.8 | 4.09 | 3.05 | 21.5 | 3.71 | 3.41 | 1.63 | 2.95 | 10.8 | 5.39 | 2.77 | 3.74 | 1.7 |
| SVVVPYEPPEG [TP53_Y220_V225G] | 0.67 | 0.997 | 1.03 | 1.01 | 0.929 | 0.492 | 0.533 | 1.02 | 0.559 | 0.503 | 0.685 | 0.714 | 0.633 | 0.525 | 0.446 | 0.445 |
| KLNNEYLELNF [MME_Y497_YF] | 0.488 | 0.751 | 0.722 | 1.1 | 1.04 | 0.715 | 4.77 | 1.16 | 0.503 | 1.06 | 0.844 | 3.38 | 0.778 | 0.757 | 0.843 | 0.552 |
| DWWQEYVLNES [TGM1_Y267_R264W] | 0.63 | 0.588 | 0.993 | 1.55 | 1.51 | 0.817 | 1.61 | 2.11 | 0.403 | 0.515 | 0.831 | 0.97 | 0.777 | 0.563 | 4.1 | 0.678 |
| ATLDVYNPFET [SCAMP3_Y41] | 0.536 | 0.524 | 0.872 | 1.37 | 1.42 | 0.537 | 0.52 | 1.09 | 0.556 | 2.15 | 0.629 | 0.652 | 0.838 | 2.49 | 3.24 | 0.581 |
| PTTKTYFRHFD [HBA1_Y43_P45R] | 0.457 | 1.08 | 0.964 | 0.959 | 0.998 | 0.409 | 0.65 | 0.556 | 0.466 | 0.539 | 0.546 | 0.66 | 0.667 | 0.393 | 0.545 | 0.312 |
| DAAEDYAEGVR [DHODH_Y194] | 0.701 | 0.63 | 0.937 | 0.951 | 1.31 | 0.671 | 0.561 | 1.21 | 0.45 | 0.586 | 0.549 | 0.746 | 0.695 | 0.542 | 0.45 | 0.629 |
| TRSFDYMEGED [FGF7_Y58_G62E_YF] | 0.618 | 0.589 | 0.911 | 1.3 | 1.6 | 1.04 | 0.827 | 1.41 | 0.435 | 0.738 | 0.592 | 0.788 | 0.754 | 0.649 | 0.391 | 0.546 |
| ELTSVYGSRAR [SENP1_Y349_D350G] | 0.411 | 0.501 | 0.69 | 0.538 | 0.633 | 0.42 | 0.41 | 0.523 | 0.449 | 1.86 | 0.378 | 0.583 | 0.567 | 1.97 | 1.96 | 0.424 |
| QGQHWYSSSDK [CASP10_Y9] | 1.21 | 0.829 | 0.905 | 0.645 | 1.17 | 0.596 | 0.665 | 0.826 | 0.573 | 0.754 | 0.766 | 0.6 | 0.697 | 0.671 | 0.552 | 0.579 |
| DSDTDYGSGYP [RNASEH2A_Y206_L202S] | 0.442 | 0.405 | 0.688 | 1.43 | 1.55 | 0.573 | 0.647 | 1.36 | 0.575 | 0.699 | 0.708 | 0.899 | 1.01 | 0.677 | 0.689 | 0.646 |
| ENAGYYFRISA | 0.6 | 0.776 | 0.661 | 1.36 | 1.48 | 0.781 | 0.527 | 1.51 | 0.369 | 0.534 | 0.797 | 0.852 | 0.764 | 0.488 | 0.356 | 0.523 |
| YTGSTYRVGDT [FN1_Y106_N104S] | 0.538 | 0.902 | 0.836 | 0.715 | 0.748 | 0.453 | 0.726 | 0.72 | 0.355 | 0.529 | 0.422 | 0.58 | 0.595 | 0.464 | 0.48 | 0.405 |
| TYGNLYGSRKQ [YIPF7_Y59_A54T] | 0.632 | 0.945 | 0.94 | 0.73 | 0.6 | 0.74 | 0.486 | 0.655 | 0.89 | 13.2 | 0.434 | 0.467 | 0.864 | 6.14 | 7.59 | 1.38 |
| LVMFIYDIFGM [SCN1A_Y1684_A1685D] | 1.67 | 2.28 | 1.74 | 1.72 | 3.08 | 2.92 | 1.66 | 5.48 | 5.95 | 5.56 | 2.11 | 1.9 | 1.55 | 8.72 | 6.25 | 3.13 |

Source: the supplement of paper PMC10065799, “High-throughput profiling of sequence recognition by tyrosine kinases and SH2 domains using bacterial peptide display” (eLife, 2023)
